Sequences and labels used below:
T1: hclec14a-CTLD-Fc (human, UniProt Q86T13 31-172, limits assumed)
T1 construct: domain: C-type lectin-like domain (CTLD); also called human clec14a-CTLD-Fc; human CTLD; not shown: Fc
T1 sequence (looked up): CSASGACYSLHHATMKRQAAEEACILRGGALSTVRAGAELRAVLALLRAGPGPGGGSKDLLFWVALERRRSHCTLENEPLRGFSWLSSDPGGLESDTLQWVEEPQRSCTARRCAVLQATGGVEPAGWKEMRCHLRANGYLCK

T2: mclec14a-CTLD-Fc (mouse, UniProt Q8VCP9 31-172, limits assumed)
T2 construct: domain: C-type lectin-like domain (CTLD); also called mouse clec14a-CTLD-Fc; mouse CTLD; not shown: Fc
T2 sequence (looked up): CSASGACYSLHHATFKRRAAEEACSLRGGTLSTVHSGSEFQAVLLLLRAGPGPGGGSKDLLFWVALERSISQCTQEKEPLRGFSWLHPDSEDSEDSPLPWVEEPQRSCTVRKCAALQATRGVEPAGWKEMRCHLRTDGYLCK

B1: Opti 16: IgG, heavy chain CDR3 GARRQVLGCFDF (SEQ ID No: 40), VL of Deg C1 (antibody, V domains shown)
VH: EVQLVESGGGLVQPGGSLRLSCAVSGFTFSGYDMSWIRQAPGKGLEWVAGIYPDGGNTYYADSVKGRFTISRDDSKNTFYLQMNSLRAEDTAVYYCARGARRQVLGCFDFWGQGTLVTVSS
VL: DIQLTQSPSSLSASVGDRVTITCTGSSSNIGRCGVTWYQQKPGKAPKLLIYADSHRPSGVPSRFSGSGSGTDFTLTISSLQPEDFATYYCGAWDDSLSGYVFGQGTKVEIKR
B2: Opti 1: IgG, heavy chain CDR3 GAATKVLGKFDC (SEQ ID No: 25), VL of Deg C1 (antibody, V domains shown)
VH: B1 VH with R101A, R102T, Q103K, C107K, F110C
VL: B1 VL
B3: Opti 13: IgG, heavy chain CDR3 GAMEQVLGPFDL (SEQ ID No: 37), VL of Deg C1 (antibody, V domains shown)
VH: B1 VH with R101M, R102E, C107P, F110L
VL: B1 VL
B4: deglyco C2 IgG (antibody, V domains shown)
VH: B1 VH with R101T, R102W, Q103W, C107P, F110Y
VL: B1 VL with R32A, C33T, G34A
notes: IgG expressed in HEK293 cells; also called Deg C2
B5: deglyco C4 IgG (antibody, V domains shown)
VH: B1 VH with R101T, R102W, Q103W, C107P, F110Y
VL: B1 VL with R32A, C33V, G34V
notes: IgG expressed in HEK293 cells; also called Deg C4
B6: deglyco C3 IgG (antibody, V domains shown)
VH: B1 VH with R101T, R102W, Q103W, C107P, F110Y
VL: B1 VL with R32W, C33S, G34N
notes: IgG expressed in HEK293 cells; also called Deg C3
B7: Opti 3: IgG, heavy chain CDR3 GATWWVLGAFDY (SEQ ID No: 27), VL of Deg C1 (antibody, V domains shown)
VH: B1 VH with R101T, R102W, Q103W, C107A, F110Y
VL: B1 VL

Changes are numbered by the printed parent chain.

In one test the test system is HUVEC migration. Description: IncuCyte HUVEC migration assay. It is filed as cell-based, human. To be noted: 20 ug/ml. Here is the method:
In order to analyze in vitro efficacies of the optimized candidate antibodies on endothelial migration, which is another function of angiogenesis, HUVEC migration assay was conducted using an IncuCyte FLR live content imaging system (Essen Bioscience Inc). At this time, regarding a wound, a uniform wound was created using a wound maker commercially available from Incucyte and was treated with 20 ug/ml of respective antibodies, and inhibitory activity against migration was comparatively evaluated.
Take B1: the “endothelial migration inhibitory activity” value was “same endothelial migration inhibitory activity as parent antibody (original C1), deglyco C1 IgG, and Avastin”.

For B2, the “endothelial migration inhibitory activity” value was “same endothelial migration inhibitory activity as parent antibody (original C1), deglyco C1 IgG, and Avastin”.

B3: the “endothelial migration inhibitory activity” value is “same endothelial migration inhibitory activity as parent antibody (original C1), deglyco C1 IgG, and Avastin”.

A further test addresses T1, hclec14a-CTLD-Fc. Description: ELISA on hclec14a-CTLD-Fc.
Details: not given
On the technique in general: An ELISA detects its analyte on a solid surface through an enzyme-linked reagent.
As for B4, the binding result is listed as “binds”.

Consider B5, for which the binding result was “binds”.

As to B6, the binding result is reported as “binds”.

A further test concerns GFP-transfected HUVECs. As to the kind of experiment: IncuCyte real-time VEGF-dependent angiogenesis assay. The format is cell-based, human. To be noted: 20 ug/ml. As for the experimental part: In order to identify inhibitory activity of optimized candidate antibodies against angiogenesis dependent upon VEGF, which is a key factor of angiogenesis, anti-angiogenesis activity was comparatively analyzed using an IncuCyte FLR live content imaging system (Essen Bioscience Inc.) providing real-time analysis of angiogenesis. First, GFP-transfected HUVECs were seeded on a […] plate, were treated with 36 types of antibodies at a concentration of 20 ug/ml and in vitro efficacy was then compared. At this time, optimized antibodies were comparatively analyzed in terms of efficacy with parental IgG (parent antibody: clone 1 of WO 2013/187556), deglyco C1 and bevacizumab (Avastin) as positive control groups.
Turning to B1, the “anti-angiogenesis activity (tube length and branch point)” value (from here on “anti-angiogenesis activity”) is given as “potent efficacy”.

For the molecule B2, the “anti-angiogenesis activity” value is given as “potent efficacy”.

On to B7, for which the “anti-angiogenesis activity” value is reported as “potent efficacy”.

Staying with this test, now noted: representative images.
Turning to B1, the “changes in tube length (progression of angiogenesis)” value (“changes in tube length” for short) is “same efficacy as Suramin and Avastin”.

As for B2, the “changes in tube length” value was “same efficacy as Suramin and Avastin”.

For B7, the “changes in tube length” value was “same efficacy as Suramin and Avastin”.

A further test has as its system HUVEC cells. As to the kind of experiment: EGM-dependent HUVEC tube formation. It is filed as cell-based, human. To be noted: 20 ug/ml. The text has this:
EGM is a type of complex including a variety of angiogenesis factors, which has been used to induce strong angiogenesis using vascular endothelial cells.
For the molecule B1, the “suppression of EGM-dependent tube formation” value (shortened to “suppression”) was “efficiently suppressing angiogenesis”.

For the molecule B2, the “suppression” value is “efficiently suppressing angiogenesis”.

Turning to B3, the “suppression” value was “efficiently suppressing angiogenesis”.

Another test has as its target T2, mclec14a-CTLD-Fc. Description: ELISA on mclec14a-CTLD-Fc.
Details: not given
As to B4, the binding result was “binds”.

Regarding B5, the binding result is recorded as “binds”.

Take B6: the binding result was “binds”.

A further test relates to HUVECs (human umbilical vein endothelial cells). As to the kind of experiment: flow cytometry cross-species reactivity. To be noted: 20 ug/ml. The format is cell-based. As for the experimental part:
(§1) In order to identify cross-species reactivity of the optimized antibodies, HUVECs (human umbilical vein endothelial cells) and MAECs (mouse aortic endothelial cells) were each cultured, the two cell groups were treated with 20 ug/ml of the parent antibody (original C1), deglyco C1, and clones 1, 13 and 16, and whether or not binding ability exists on the surface of two types of cells was identified by flow cytometry.
With B1, the “binding to HUVEC surface” value is recorded as “had cross-species reactivity”.

With B2, the “binding to HUVEC surface” value is “had cross-species reactivity”.

Regarding B3, the “binding to HUVEC surface” value is “had cross-species reactivity”.

A further test relates to MAECs (mouse aortic endothelial cells). Description: flow cytometry cross-species reactivity. The format is cell-based. To be noted: 20 ug/ml. As for the experimental part: as §1
On to B1, for which the “binding to MAEC surface” value was “had cross-species reactivity”.

Consider B2, for which the “binding to MAEC surface” value is “had cross-species reactivity”.

For the molecule B3, the “binding to MAEC surface” value was “had cross-species reactivity”.

The values are drawn from US20190309074A1, “DEGLYCOSYLATED ANTIBODY SPECIFICALLY BINDING TO CLEC14A AND USES THEREOF” (WOORI TECHNOLOGIES CORPORATION, priority 2016, published 2019).
